{"source": "patent US20110165660A1", "about": "“ENGINEERED MICROORGANISMS WITH ENHANCED FERMENTATION ACTIVITY” (VERDEZYNE, INC., priority 2009, published 2011)", "molecules": {"B1": {"name": "Ruminococcus flavefaciens: native xylose isomerase from Ruminococcus flavefaciens strain 17 (SEQ ID NO: 31) (protein, listed as Ruminococcus flavefaciens)", "chain": "MEFFSNIGKIQYQGPKSTDPLSFKYYNPEEVINGKTMREHLKFALSWWHTMGGDGTDMFGCGTTDKTWGQSDPAARAKAKVDAAFEIMDKLSIDYYCFHDRDLSPEYGSLKATNDQLDIVTDYIKEKQGDKFKCLWGTAKCFDHPRFMHGAGTSPSADVFAFSAAQIKKALESTVKLGGNGYVFWGGREGYETLLNTNMGLELDNMARLMKMAVEYGRSIGFKGDFYIEPKPKEPTKHQYDFDTATVLGFLRKYGLDKDFKMNIEANHATLAQHTFQHELRVARDNGVFGSIDANQGDVLLGWDTDQFPTNIYDTTMCMYEVIKAGGFTNGGLNFDAKARRGSFTPEDIFYSYIAGMDAFALGFRAALKLIEDGRIDKFVADRYASWNTGIGADIIAGKADFASLEKYALEKGEVTASLSSGRQEMLESIVNNVLFSL"}}, "key": {"[1]": {"biological_target": "T1, Piromyces strain E2 xylose isomerase, native (XI-P), SEQ ID NO: 35 (gene SEQ ID NO: 34) (Piromyces sp. E2, UniProt A0ACD6B9F5)", "T1 construct": "soluble whole cell extract; SDH-coupled", "T1 sequence (A0ACD6B9F5 1-437)": "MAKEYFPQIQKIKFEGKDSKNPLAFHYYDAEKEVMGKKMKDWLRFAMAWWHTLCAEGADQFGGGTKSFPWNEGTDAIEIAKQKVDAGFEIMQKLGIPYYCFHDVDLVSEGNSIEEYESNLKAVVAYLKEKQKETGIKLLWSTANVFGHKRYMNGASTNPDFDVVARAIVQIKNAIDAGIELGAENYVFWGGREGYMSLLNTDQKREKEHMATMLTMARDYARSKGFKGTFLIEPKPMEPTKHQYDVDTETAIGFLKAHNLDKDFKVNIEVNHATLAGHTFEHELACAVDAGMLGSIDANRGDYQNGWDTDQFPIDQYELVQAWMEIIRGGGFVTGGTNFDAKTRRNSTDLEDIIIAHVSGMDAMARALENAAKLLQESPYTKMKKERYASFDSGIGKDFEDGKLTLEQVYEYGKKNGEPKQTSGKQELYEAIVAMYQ", "test": "Xylose isomerase kinetics (SDH-coupled, NADH, A340), with and without xylitol", "format": "biochemical", "settings": "about 0 to about 50 mM xylitol; pH 7.5, about 30° C.", "method": "(§1) About 20 μg of soluble whole cell extract was incubated in the presence of 100 mM Tris, pH 7.5, 10 mM MgCl2, 0.15 mM NADH (Sigma, St. Louis, Mo.), and about 2 U sorbitol dehydrogenase (Roche) at about 30° C. […] A Beckman DU-800 was utilized with an Enzyme Mechanism software package (Beckman Coulter, Inc.), and the change in the A340 was monitored for 2-3 minutes.\n(§2) Approximately 20 μg of soluble whole cell extract from each transformed cell line, prepared using Y-PER plus reagent as described above, was incubated in a solution containing about 100 mM Tris, pH 7.5, 10 mM MgCl ? 2, 0.15 mM NADH (Sigma, St. Louis, Mo.), and 2 U Sorbitol Dehydrogenase (SDH) (Roche, Indianapolis, Ind.) at about 30° C. […] A Beckman DU-800 spectrophotometer was utilized with an Enzyme Mechanism software package (Beckman Coulter, Inc, Brea, Calif.), and the change in the A340 was monitored for 2-3 minutes. […]\n(§3) Approximately 20 μg of soluble whole cell extract from each transformed cell line was prepared using Y-PER plus reagent as described above was incubated in a solution containing about 100 mM Tris, pH 7.5, 10 mM MgCl ? […] A Beckman DU-800 spectrophotometer was utilized with an Enzyme Mechanism software package (Beckman Coulter, Inc, Brea, Calif.), and the change in the A340 was monitored for 2-3 minutes."}, "[2]": {"biological_target": "T2, Ruminococcus flavefaciens strain 17 (Siijpesteijn 1948) xylose isomerase, native (XI-R), SEQ ID NO: 31 (gene SEQ ID NO: 29/30) (Ruminococcus flavefaciens, UniProt Q9S306)", "T2 construct": "made in house; host or cells: Saccharomyces cerevisiae BY4742 (p426GPD); soluble whole cell extract, not purified", "T2 sequence (Q9S306 1-438)": "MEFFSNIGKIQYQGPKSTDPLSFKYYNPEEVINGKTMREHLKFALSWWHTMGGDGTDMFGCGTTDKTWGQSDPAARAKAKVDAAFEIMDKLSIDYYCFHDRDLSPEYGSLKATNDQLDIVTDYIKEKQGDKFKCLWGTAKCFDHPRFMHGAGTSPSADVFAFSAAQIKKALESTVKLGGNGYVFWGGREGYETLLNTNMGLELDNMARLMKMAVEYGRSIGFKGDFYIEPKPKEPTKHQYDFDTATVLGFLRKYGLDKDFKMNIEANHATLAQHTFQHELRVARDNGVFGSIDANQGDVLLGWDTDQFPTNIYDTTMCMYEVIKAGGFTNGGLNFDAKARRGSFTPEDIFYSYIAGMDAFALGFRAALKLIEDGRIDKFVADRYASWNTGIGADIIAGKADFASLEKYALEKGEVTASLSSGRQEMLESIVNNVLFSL", "test": "Xylose isomerase kinetics (SDH-coupled, NADH, A340), with and without xylitol", "format": "biochemical", "settings": "about 0 to about 50 mM xylitol; pH 7.5, about 30° C.", "method": "as §1, §2, §3"}, "[3]": {"test_system": "Ruminococcus flavefaciens FD-1 (Ruminococcus_FD1) xylose isomerase, SEQ ID NO: 110", "test": "Kinetics of additional xylose isomerase candidates (Km and specific activity)", "format": "biochemical", "settings": "xylose 40 to 500 nM; crude S. cerevisiae extract", "text": "The results are show in FIG. 25."}, "[4]": {"biological_target": "T3, Ruminococcus flavefaciens xylose isomerase, codon-optimized gene variant (XI-R-COOP), gene SEQ ID NO: 33 (Ruminococcus flavefaciens, UniProt Q9S306)", "T3 sequence (Q9S306 1-438)": "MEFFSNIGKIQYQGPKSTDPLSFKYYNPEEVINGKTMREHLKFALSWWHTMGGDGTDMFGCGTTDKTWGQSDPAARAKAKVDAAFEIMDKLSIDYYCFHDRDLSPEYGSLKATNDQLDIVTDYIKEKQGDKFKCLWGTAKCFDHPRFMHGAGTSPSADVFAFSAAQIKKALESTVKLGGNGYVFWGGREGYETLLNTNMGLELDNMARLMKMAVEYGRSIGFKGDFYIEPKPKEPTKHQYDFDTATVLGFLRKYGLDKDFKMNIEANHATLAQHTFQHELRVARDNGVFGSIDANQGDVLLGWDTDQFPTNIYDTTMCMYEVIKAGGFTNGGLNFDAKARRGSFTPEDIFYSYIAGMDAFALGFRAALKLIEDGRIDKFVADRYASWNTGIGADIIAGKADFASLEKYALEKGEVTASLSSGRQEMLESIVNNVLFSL", "test": "Xylose isomerase kinetics (SDH-coupled, NADH, A340), with and without xylitol", "format": "biochemical", "settings": "xylose about 40 to about 500 mM; pH 7.5, about 30° C.", "method": "An additional variant of the native R. flavefaciens xylose isomerase gene (XI-R-COOP) was prepared in which all of the codons were optimized for expression in Saccharomyces cerevisiae. This variant gene was synthesized by IDT DNA Inc. and the sequence is set forth below as SEQ ID NO: 33."}, "xylose [5]": {"test_system": "xylose", "test": "In vivo evaluation of xylose isomerase constructs in C5 strain: xylose fermentation, aerobic then anaerobic (ethanol, xylose, glucose, OD600, dry cell weight)", "format": "cell-based, Saccharomyces cerevisiae", "settings": "final sample at 372 hours", "text": "The engineered strain was designed to include the following genetic modifications: the native Pho13 gene (alkaline phosphatase specific for p-nitrophenyl phosphate) was disrupted by inserting a construct containing the native TLK1 gene (Transketolase-1); the native aldose reductase gene (Gre3) was disrupted by inserting a construct containing the native high-affinity glucose transporter-7 gene (HXT7); the native glucose-repressible alcohol dehydrogenase II gene (adh2) was disrupted by inserting a construct containing the native xylulokinase gene (XYLK); and the native orotidine-5′ phosphate decarboxylase gene (ura3) was disrupted by inserting a construct containing the native transaldolase 1 gene (TAL1). The resulting strain had the following genotype: pho13::TKL1, gre3::HXT7, adh-2::XYLK, ura3::TAL1.\nThe C5 strain was transformed using standard protocols with either p426GPD (as a control) or the chimeric variants XI-R, XI-Rp5, XI-Rp10, or XI-Rp15. The transformed cells were grown on SC-glucose minus uracil initially and then passaged onto SC-xylose minus uracil. Cultures of each of the above constructs were made in SC-xylose minus uracil—and grown for one week. The cultures were grown aerobically at 30° C. with 250 rpm agitation, 1 vvm sparge of process air, 21% O2. The pH was controlled at about 5.0 with 1N NaOH. […] At 24 hours elapsed fermentation time the fermentation was switched to anaerobic conditions. […] Oxygen was purged with 100% N2 sparge at 1 vvm until percent O2 was below 1%. Aeration was then set at 0.25 vvm 100% N2.\nThe final sample also measured biomass by dry cell weight."}, "xylose [6]": {"test_system": "xylose", "test": "Industrial yeast strain BF903 with Ruminococcus xylose isomerase: sealed serum bottles on YP plus xylose (xylose utilization, ethanol, cell growth)", "format": "cell-based, Saccharomyces cerevisiae", "settings": "FIG. 12", "method": "The serum bottles were sealed with a butyl rubber stopper to prevent air exchange. As a result, the cultures became anaerobic once the available oxygen in the serum bottle was utilized. In general, anaerobiosis (e.g., the onset of anaerobic conditions) occurred a few hours after the culture was inoculated. Xylose utilization, ethanol production and cell growth were measured every twenty four hours."}, "[7]": {"test_system": "xylose isomerase activity", "test": "Heterologous xylose isomerase expression in engineered yeast (active yes/no)", "settings": "xylose isomerase of the donor organism expressed in engineered yeast (S. cerevisiae)"}, "xylose [8]": {"test_system": "xylose", "test": "Industrial yeast strain BF903 with Ruminococcus xylose isomerase: aerobic growth and xylose consumption on YP-xylose", "format": "cell-based, Saccharomyces cerevisiae", "settings": "commercial yeast strain BF903, YP-xylose, 30° C., 7 days, FIG. 11", "method": "A commercially available industrial diploid strain of Saccharomyces cerevisiae (strain BF903; “Stillspirits” triple distilled yeast, Brewcraft, Albany, New Zealand; available at Hydrobrew, Oceanside, Calif.) was obtained and was made competent for transformation using known yeast cell transformation procedures. […] Transformed yeast containing each construct were grown overnight aerobically in a 15 ml culture tube on YPD media containing 2% glucose. After about 24 hours, about 25 ml of YP media containing 2% glucose and 100 μg/ml G418 was seeded with the cells at an initial OD600 of 0.5 in a 250 ml Erlenmeyer flask and grown aerobically at 30° C. The cultures were then passaged once every 7 days into fresh media, also at an initial OD600 of 0.5.\nMeasurements were taken of the cell optical density (OD600) to assess cell density and plated onto YPD with 100 μg/ml G418 to ensure that the plasmid was stable. […] The strains were then grown overnight in YPD (with 100 μg/ml G418) and used to inoculate about 50 ml YP-xylose (with 100 μg/ml G418) into disposable 250 ml Erlenmeyer flasks with vented caps at an initial OD600 of about 1. The cultures were allowed to grow aerobically at 30° C. at 200 rpm for 7 days."}}, "note": "Where “and” joins values, the source holds several entries; their conditions need not be identical. Identical values can stand only once."}
{"molecule": "OC[C@@H](O)[C@H](O)[C@@H](O)CO", "note": "[xylitol]", "values": [{"measurement": "Ki", "setting": "[1]", "result": 4.79, "unit": "mM"}, {"measurement": "Ki", "setting": "[2]", "result": 43.6, "unit": "mM"}]}
{"molecule": "OC1OC[C@@H](O)[C@H](O)[C@H]1O", "note": "(some centres unmarked) [xylose]", "values": [{"measurement": "Km", "setting": "[3]", "result": 71.9, "unit": "mM"}, {"measurement": "Km", "setting": "[4]", "result": 100, "unit": "mM"}]}
{"molecule": "B1", "values": [{"measurement": "Glucose", "setting": "xylose [5]", "result": 0, "unit": "g/L"}, {"measurement": "Ethanol", "setting": "xylose [5]; listed as XI-R", "result": "15.65 g/L and 15.5 g/L"}, {"measurement": "Xylose", "setting": "xylose [5]; listed as XI-R", "result": "3.14 g/L and 3.85 g/L"}, {"measurement": "cell density versus vector only control", "setting": "xylose [6]", "result": "grew to a higher cell density"}, {"measurement": "ethanol production from xylose versus vector only control", "setting": "xylose [6]", "result": "produced more ethanol"}, {"measurement": "Active? (yes/no)", "setting": "[7]", "result": "Yes"}, {"measurement": "xylose consumption versus vector control", "setting": "xylose [8]", "result": "more efficient at consuming xylose"}]}
